What was measured:
human IL-1β = human IL-1β (human, UniProt P01584 117-269); test: cell-based or functional assay
human IL-1α = biological target: T1, human IL-1α (human, UniProt P01583 113-271); test: cell-based or functional assay
T1 sequence (looked up): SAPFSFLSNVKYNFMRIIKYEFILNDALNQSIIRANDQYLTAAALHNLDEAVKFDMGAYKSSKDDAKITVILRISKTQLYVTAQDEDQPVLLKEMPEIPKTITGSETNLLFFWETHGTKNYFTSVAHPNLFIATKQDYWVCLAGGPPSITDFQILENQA

B1: ABT2-108-521/ABT1-141-25 hu IgG1/K wt (bispecific antibody, V domains shown)
VH: EVQLLESGGGLVQPGGSLRLSCAASGFTFAEYTMMWVRQAPGKGLEWVSRIGQDGKNTYYADSVKGRFTISRDNSKNTLYLQMNSLRAEDTAVYYCAKYTGRILGHHLFDYWGQGTLVTVSS
VL: DIQMTQSPSSLSASVGDRVTITCRASQWIQKQLAWYQQKPGKAPKLLIYSSSYLQSGVPSRFSGSGSGTDFTLTISSLQPEDFATYYCQQHLRVPMTFGQGTKVEIKR
IL-1β IC50 (human IL-1β): 0.1 nM
IL-1α IC50 (human IL-1α): 20 nM

B2: ABT2-108-538x/ABT1-221 huIgG1/K wt (bispecific antibody, V domains shown)
VH: EVQLLESGGGLVQPGGSLRLSCAASGFTFADEGMMWVRQAPGKGLEWVSRITYSGKNTYYADSVKGRFTISRDNSKNTLYLQMNSLRAEDTAVYYCAKYTGRILGHHLFDYWGQGTLVTVSS
VL: DIQMTQSPSSLSASVGDRVTITCRASQDIWPYLMWYQQKPGKAPKLLIYYSSMLQSGVPSRFSGSGSGTDFTLTISSLQPEDFATYYCQQFRRWPYTFGQGTKVEIKR
IL-1β IC50 (human IL-1β): 0.01 nM
IL-1α IC50 (human IL-1α): 200 nM

B3: ABT2-108-533x/ABT1-122 hu IgG1/K wt (bispecific antibody, V domains shown)
VH: EVQLLESGGGLVQPGGSLRLSCAASGFTFADEGMMWVRQAPGKGLEWVSRIGQDGKNTYYADSVKGRFTISRDNSKNTLYLQMNSLRAEDTAVYYCAKYTGRILGHHLFDYWGQGTLVTVSS
VL: DIQMTQSPSSLSASVGDRVTITCRASQPIWTELNWYQQKPGKAPKLLIYGSSSLQSGVPRFSGSGSGTDFTLTISSLQPEDFATYYCQQFAYFPATFGQGTKVEIKR
IL-1α IC50 (human IL-1α): 1000 nM

B4: ABT2-108-538x/ABT1-221 huIgG1/K wt (second row of that name; light chain column ABT1-222) (bispecific antibody, V domains shown)
VH: EVQLLESGGGLVQPGGSLRLSCAASGFTFADEGMMWVRQAPGKGLEWVSRITYSGKNTYYADSVKGRFTISRDNSKNTLYLQMNSLRAEDTAVYYCAKYTGRILGHHLFDYWGQGTLVTVSS
VL: DIQMTQSPSSLSASVGDRVTITCRASQPITRNLRWYQQKPGKAPKLLIYHSSVLQSGVPSRFSGSGSGTDFTLTISSLQPEDFATYYCQQGYRWPVTFGQGTKVEIKR
IL-1β IC50 (human IL-1β): 0.01 nM
IL-1α IC50 (human IL-1α): 200 nM

B5: ABT2-65/ABT1-141 hu IgG1/K wt (bispecific antibody, V domains shown)
VH: EVQLLESGGGLVQPGGSLRLSCAASGFTFEDYQMGWVRQAPGKGLEWVSSISAMGNRTYYADSVKGRFTISRDDSKNTLYLQMNSLRAEDTAVYYCAKNLVRTQSKMWMFDYWGQGTLVTVSS
VL: DIQMTQSPSSLSASVGDRVTITCRASQWIQKQLAWYQQKPGKAPKLLIYSSSYLQSGVPRFSGSGSGTDFTLTISSLQPEDFATYYCQQHLRVPFTFGQGTKVEIKR
IL-1β IC50 (human IL-1β): 100 nM
IL-1α IC50 (human IL-1α): 7000 nM

B6: ABT2-65-8/ABT1-212 hu IgG1/K wt (bispecific antibody, V domains shown)
VH: EVQLLESGGGLVQPGGSLRLSCAASGFTFEDYQMGWVRQAPGKGLEWVSSISAMGNRTYYADSVKGRFTISRDDSKNTLYLQMNSLRAEDTAVYYCAQNLVRMDSRRWMFDYWGQGTLVTVSS
VL: DIQMTQSPSSLSASVGDRVTITCRASQRINGNLRWYQQKPGKAPKLLIYSVSQLQSGVPSRFSGSGSGTDFTLTISSLQPEDFATYYCQQGYDWPPTFGQGTKVETKR
IL-1β IC50 (human IL-1β): 3.5 nM
IL-1α IC50 (human IL-1α): 5000 nM

B7: ABT2-65-17/ABT1-212 hu IgG1/K wt (bispecific antibody, V domains shown)
VH: EVQLLESGGGLVQPGGSLRLSCVASGFTFEDYQMGWVRQAPGKGLEWVSSISAMGNRTYYADSVKGRFTISRDDSKNTLYLQMNSLRAEDTAVYYCAQNLVRLGRSRWMFDYWGQGTLVTVSS
VL: DIQMTQSPSSLSASVGDRVTITCRASQRINGNLRWYQQKPGKAPKLLIYSVSQLQSGVPSRFSGSGSGTDFTLTISSLQPEDFATYYCQQGYDWPPTFGQGTKVETKR
IL-1α IC50 (human IL-1α): 100 nM

B8: ABT2-65-8/ABT1-141 hu IgG1/K wt (bispecific antibody, V domains shown)
VH: EVQLLESGGGLVQPGGSLRLSCAASGFTFEDYQMGWVRQAPGKGLEWVSSISAMGNRTYYADSVKGRFTISRDDSKNTLYLQMNSLRAEDTAVYYCAQNLVRMDSRRWMFDYWGQGTLVTVSS
VL: DIQMTQSPSSLSASVGDRVTITCRASQWIQKQLAWYQQKPGKAPKLLIYSSSYLQSGVPRFSGSGSGTDFTLTISSLQPEDFATYYCQQHLRVPFTFGQGTKVEIKR
IL-1β IC50 (human IL-1β): 0.09 nM
IL-1α IC50 (human IL-1α): 450 nM

B9: ABT2-65-17/ABT1-141 hu IgG1/K wt (bispecific antibody, V domains shown)
VH: EVQLLESGGGLVQPGGSLRLSCVASGFTFEDYQMGWVRQAPGKGLEWVSSISAMGNRTYYADSVKGRFTISRDDSKNTLYLQMNSLRAEDTAVYYCAQNLVRLGRSRWMFDYWGQGTLVTVSS
VL: DIQMTQSPSSLSASVGDRVTITCRASQWIQKQLAWYQQKPGKAPKLLIYSSSYLQSGVPRFSGSGSGTDFTLTISSLQPEDFATYYCQQHLRVPFTFGQGTKVEIKR
IL-1β IC50 (human IL-1β): 0.4 nM
IL-1α IC50 (human IL-1α): 70 nM

B10: ABT2-108/ABT1-122-505 hu IgG1/K wt (bispecific antibody, V domains shown)
VH: EVQLLESGGGLVQPGGSLRLSCAASGFTFAEYTMMWVRQAPGKGLEWVSRIGQDGKNTYYADSVKGRFTISRDNSKNTLYLQMNSLRAEDTAVYYCAKYTGRVGVHHLFDYWGQGTLVTSS
VL: DIQMTQSPSSLSASVGDRVTITCRASQPIWTELNWYQQKPGKAPKLLIYGSSSLQSGVPSRFSGSGSGTDFTLTISSLQPEDFATYYCKQFAYFPATFGQGTKVEIKR
IL-1β IC50 (human IL-1β): 20 nM
IL-1α IC50 (human IL-1α): 2000 nM

B11: ABT2-108-620x/ABT1-122-750M hu IgG1 wt (bispecific antibody, V domains shown)
VH: EVQLLESGGGLVQPGGSLRLSCAASGFTFAEESWMWVRQAPGKGLEWVSRIGQDGKNTYYREDVKGRFTISRDNSKNTLYLQMNSLRAEDTAVYYCAKYTGRIMGHHLFDYWGQGTLVTVSS
VL: DIQMTQSPSSLSASVGDRVTITCSASQHIWTEMSWYQQKPGKAPKLLIYGSASRQKGVPSRFSGSGSGTDFTLTISSLQPEDFATYYCKQFAYFPNTFGQGTKVEIKR
IL-1β IC50 (human IL-1β): 0.00555 nM
IL-1α IC50 (human IL-1α): 18.5 nM

B12: ABT2-108-620x/ABT1-122-750MT hu IgG1 wt (bispecific antibody, V domains shown)
VH: EVQLLESGGGLVQPGGSLRLSCAASGFTFAEESWMWVRQAPGKGLEWVSRIGQDGKNTYYREDVKGRFTISRDNSKNTLYLQMNSLRAEDTAVYYCAKYTGRIMGHHLFDYWGQGTLVTVSS
VL: DIQMTQSPSSLSASVGDRVTITCSASQHIWTEMSWYQQKPGKTPKLLIYGSASRQKGVPSRFSGSGSGTDFTLTISSLQPEDFATYYCKQFAYFPNTFGQGTKVEIKR
IL-1β IC50 (human IL-1β): 0.00482 nM
IL-1α IC50 (human IL-1α): 10.1 nM

B13: ABT2-108-538x/ABT1-122-555 hu IgG1/K wt (bispecific antibody, V domains shown)
VH: EVQLLESGGGLVQPGGSLRLSCAASGFTFADEGMMWVRQAPGKGLEWVSRITYSGKNTYYADSVKGRFTISRDNSKNTLYLQMNSLRAEDTAVYYCAKYTGRILGHHLFDYWGQGTLVTVSS
VL: DIQMTQSPSSLSASVGDRVTITCRASQPIWTELNWYQQKPGKTPKLLIYGSSSLQSGVPSRFSGSGSGTDFTLTISSLQPEDFATYYCQQFAYFPATFGQGTKVEIKR
IL-1β IC50 (human IL-1β): 0.015 nM
IL-1α IC50 (human IL-1α): 25 nM

B14: ABT2-108/ABT1-122-508 hu IgG1/K wt (bispecific antibody, V domains shown)
VH: EVQLLESGGGLVQPGGSLRLSCAASGFTFAEYTMMWVRQAPGKGLEWVSRIGQDGKNTYYADSVKGRFTISRDNSKNTLYLQMNSLRAEDTAVYYCAKYTGRVGVHHLFDYWGQGTLVTSS
VL: DIQMTQSPSSLSASVGDRVTITCRASQPIWTELNWYQQKPGKAPKLLIYGSSSLQRGVPSRFSGSGSGTDFTLTISSLQPEDFATYYCQQFAYFPATFGQGTKVEIKR
IL-1β IC50 (human IL-1β): 20 nM
IL-1α IC50 (human IL-1α): 400 nM

B15: ABT2-108-620x/ABT1-122-750x huIgG1/K wt (bispecific antibody, V domains shown)
VH: EVQLLESGGGLVQPGGSLRLSCAASGFTFAEESWMWVRQAPGKGLEWVSRIGQDGKNTYYREDVKGRFTISRDNSKNTLYLQMNSLRAEDTAVYYCAKYTGRIMGHHLFDYWGQGTLVTVSS
VL: DIQMTQSPSSLSASVGDRVAITCSASQHIWTEISWYQQKPGKAPKLLIYGSASRQKGVPSRFSGSGSGTDFTLTISSLQPEDFATYYCKQFAYFPNTFGQGTKVEIKR
IL-1β IC50 (human IL-1β): 0.005 nM
IL-1α IC50 (human IL-1α): 17.5 nM

B16: ABT2-108-521/ABT1-122-511 hu IgG1/K wt (bispecific antibody, V domains shown)
VH: EVQLLESGGGLVQPGGSLRLSCAASGFTFAEYTMMWVRQAPGKGLEWVSRIGQDGKNTYYADSVKGRFTISRDNSKNTLYLQMNSLRAEDTAVYYCAKYTGRILGHHLFDYWGQGTLVTVSS
VL: DIQMTQSPSSLSASVGDRVTITCRASQPIWTELNWYQQKPGKAPKLLIYGSSSLQRGVPSRFSGSGSGTDFTLTISSLQPEDFATYYCKQFAYFPATFGQGTKVEIKR
IL-1β IC50 (human IL-1β): 0.16 nM
IL-1α IC50 (human IL-1α): 150 nM

B17: ABT2-108/ABT1-122-554 hu IgG1/K wt (bispecific antibody, V domains shown)
VH: EVQLLESGGGLVQPGGSLRLSCAASGFTFAEYTMMWVRQAPGKGLEWVSRIGQDGKNTYYADSVKGRFTISRDNSKNTLYLQMNSLRAEDTAVYYCAKYTGRVGVHHLFDYWGQGTLVTSS
VL: DIQMTQSPSSLSASVGDRVTITCRASQPIWTELNWYQQKPGKAPKLLIYGSSSLQSGVPSRFSGSGSGTDFTLTISSLQPEDFATYYCQQFAYFPATFGQETKVEIKR
IL-1β IC50 (human IL-1β): 9 nM
IL-1α IC50 (human IL-1α): 150 nM

B18: ABT2-108-620x/ABT1-122-512 huIgG1/K wt (bispecific antibody, V domains shown)
VH: EVQLLESGGGLVQPGGSLRLSCAASGFTFAEESWMWVRQAPGKGLEWVSRIGQDGKNTYYREDVKGRFTISRDNSKNTLYLQMNSLRAEDTAVYYCAKYTGRIMGHHLFDYWGQGTLVTVSS
VL: DIQMTQSPSSLSASVGDRVTITCRASQPIWTELNWYQQKPGKAPKLLIYGSAKRQRGVPSRFSGSGSGTDFTLTISSLQPEDFATYYCKQFAYFPATFGQGTKVEIKR
IL-1β IC50 (human IL-1β): 0.006 nM
IL-1α IC50 (human IL-1α): 150 nM

B19: ABT2-108/ABT1-122-556 hu IgG1/K wt (bispecific antibody, V domains shown)
VH: EVQLLESGGGLVQPGGSLRLSCAASGFTFAEYTMMWVRQAPGKGLEWVSRIGQDGKNTYYADSVKGRFTISRDNSKNTLYLQMNSLRAEDTAVYYCAKYTGRVGVHHLFDYWGQGTLVTSS
VL: DIQMTQSPSSLSASVGDRVTITCRASQPIWTELNWYQQKPGKAPKLLIYGSSSLQSGVPSRFSGSGSGTDFTLTISSLQPEDFATYHCQQFAYFPATFGQGTKVEIKR
IL-1β IC50 (human IL-1β): 15 nM
IL-1α IC50 (human IL-1α): 150 nM

B20: ABT2-108/ABT1-122-555 hu IgG1/K wt (bispecific antibody, V domains shown)
VH: EVQLLESGGGLVQPGGSLRLSCAASGFTFAEYTMMWVRQAPGKGLEWVSRIGQDGKNTYYADSVKGRFTISRDNSKNTLYLQMNSLRAEDTAVYYCAKYTGRVGVHHLFDYWGQGTLVTSS
VL: DIQMTQSPSSLSASVGDRVTITCRASQPIWTELNWYQQKPGKTPKLLIYGSSSLQSGVPSRFSGSGSGTDFTLTISSLQPEDFATYYCQQFAYFPATFGQGTKVEIKR
IL-1β IC50 (human IL-1β): 7 nM
IL-1α IC50 (human IL-1α): 70 nM

— patent US20090291081A1 (AbbVie / Abbott, published 2009)
